One series concerns the target YB-1 (human, UniProt P67809 1-324). The experiment in a line: fluorescence anisotropy; no PARP1; 100 nM DNA, 0-1600 nM YB-1; 1x RB (composition not in the material); anisotropy at 25 C; EMSA: 37 C 10 min, 7.6% native PAGE in 25 mM Tris-borate pH 8.3 at 4 C; DNA 100 nM (anisotropy), 40 nM in Methods vs 100 nM in Figure 1B legend (EMSA). The conditions noted are these: protein: recombinant; tags: His-tag; label: 3'-FAM on ODN1; for gel shift ODN1 also 5'-32P; blunt 32-bp duplex with a nick between ODN2 and ODN3; ODN1:ODN2:ODN3 annealed 1:1.2:1.2. (In general: Fluorescence polarisation rises when a labelled molecule tumbles more slowly, as on binding a larger partner.)

For a further series, the target named is YB-1;PARP1 (human;human, UniProt P67809;P09874 1-324;1-1014, |). The experiment in a line: fluorescence anisotropy; 200 nM PARP1, 100 nM DNA, 0-1600 nM YB-1; ternary complex; 1x RB (composition not in the material); anisotropy at 25 C; EMSA: 37 C 10 min, 7.6% native PAGE in 25 mM Tris-borate pH 8.3 at 4 C; DNA 100 nM (anisotropy), 40 nM in Methods vs 100 nM in Figure 1B legend (EMSA). The settings on record: protein: recombinant;recombinant; tags: His-tag;; label: 3'-FAM on ODN1; for gel shift ODN1 also 5'-32P; blunt 32-bp duplex with a nick between ODN2 and ODN3; ODN1:ODN2:ODN3 annealed 1:1.2:1.2.

This is an account of results in PMC5955111, “The multifunctional protein YB-1 potentiates PARP1 activity and decreases the efficiency of PARP1 inhibitors”.

Sequence of YB-1 (P67809 whole entry): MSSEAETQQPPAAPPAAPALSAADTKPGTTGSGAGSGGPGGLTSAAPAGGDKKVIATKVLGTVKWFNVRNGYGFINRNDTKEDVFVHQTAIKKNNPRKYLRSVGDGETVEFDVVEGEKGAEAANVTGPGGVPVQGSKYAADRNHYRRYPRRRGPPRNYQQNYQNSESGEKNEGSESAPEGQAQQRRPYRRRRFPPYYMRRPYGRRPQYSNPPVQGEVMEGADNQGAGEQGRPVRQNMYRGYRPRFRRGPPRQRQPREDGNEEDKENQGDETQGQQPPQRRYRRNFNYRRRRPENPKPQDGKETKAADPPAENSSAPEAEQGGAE
Sequence of YB-1;PARP1 (P67809 whole entry, chain 1 of 2): as the sequence (P67809 whole entry) above
Sequence of YB-1;PARP1 (P09874 whole entry, chain 2 of 2): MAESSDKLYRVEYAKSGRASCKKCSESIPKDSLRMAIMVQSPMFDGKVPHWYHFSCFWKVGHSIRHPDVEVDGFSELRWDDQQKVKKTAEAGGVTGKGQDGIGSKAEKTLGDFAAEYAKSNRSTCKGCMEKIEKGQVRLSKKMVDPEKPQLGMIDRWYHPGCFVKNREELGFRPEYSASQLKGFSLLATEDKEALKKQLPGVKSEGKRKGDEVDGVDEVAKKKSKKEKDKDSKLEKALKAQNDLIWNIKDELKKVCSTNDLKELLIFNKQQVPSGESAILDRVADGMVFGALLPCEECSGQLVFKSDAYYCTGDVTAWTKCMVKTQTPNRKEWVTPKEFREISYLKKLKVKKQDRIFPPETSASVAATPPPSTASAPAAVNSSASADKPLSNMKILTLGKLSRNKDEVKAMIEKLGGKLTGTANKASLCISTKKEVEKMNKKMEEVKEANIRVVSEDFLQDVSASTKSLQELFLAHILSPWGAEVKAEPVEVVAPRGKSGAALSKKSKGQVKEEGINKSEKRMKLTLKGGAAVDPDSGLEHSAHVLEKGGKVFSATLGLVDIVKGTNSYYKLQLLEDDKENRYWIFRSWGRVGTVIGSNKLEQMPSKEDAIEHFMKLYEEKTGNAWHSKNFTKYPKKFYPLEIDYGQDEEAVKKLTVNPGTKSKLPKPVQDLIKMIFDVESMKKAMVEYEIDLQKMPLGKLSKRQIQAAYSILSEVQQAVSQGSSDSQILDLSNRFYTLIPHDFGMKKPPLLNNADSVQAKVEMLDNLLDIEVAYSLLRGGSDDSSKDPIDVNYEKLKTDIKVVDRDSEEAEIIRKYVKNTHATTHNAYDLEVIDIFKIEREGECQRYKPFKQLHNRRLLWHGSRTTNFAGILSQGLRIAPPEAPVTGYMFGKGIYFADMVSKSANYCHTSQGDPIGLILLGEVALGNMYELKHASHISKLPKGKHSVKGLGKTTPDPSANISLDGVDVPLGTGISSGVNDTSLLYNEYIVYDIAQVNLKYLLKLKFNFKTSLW

B1: Nick (ODN1+ODN2+ODN3) (dsDNA)
DNA 1: GGAAGACCCTGACGTTTCCCAACTTTATCGCC
DNA 2: GGCGATAAAGTTGGG
DNA 3: AAACGTCAGGGTCTTCC
As for B1, the binding result in the series with YB-1 and in the series with YB-1;PARP1 was “binds” each time.
